Series [1] has as its target RARg:RXRa (Homo sapiens, UniProt P13631;P19793 full;full). In words: no ligand; PBM; 270 nM : 90 nM RXRa; PBS pH 7.4, 2% milk, 0.02% Triton X-100, 1 mM DTT, BSA, 0.4 mg/ml salmon testes DNA. Conditions: tags: His kept;His cleaved; copies: 1;1; label: surface-attached array probe. Put shortly:
(§1)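 Ligand-free nuclear receptor dimers were bound for 1 h to custom Agilent 4×180K protein-binding microarrays. Detection used antibodies against each partner (one per run). Binding z-scores rest on regression-normalized fluorescence, with random background probes as the reference.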

In series [2] the target is PXR:RXRa (Homo sapiens, UniProt O75469;P19793 full;full). The series is described as above. The note with it: tags: His kept;His cleaved; copies: 1;1; label: surface-attached array probe. Put shortly:
as §1

Series [3] concerns the target FXR:RXRa (Homo sapiens, UniProt Q96RI1;P19793 full;full). Described as above. Conditions: tags: His kept;His cleaved; copies: 1;1; label: surface-attached array probe. The method in brief: as §1
The target of series [4] is VDR:RXRa (Homo sapiens, UniProt P11473;P19793 full;full). Described as above. The note with it: tags: His kept;His cleaved; copies: 1;1; label: surface-attached array probe. Put shortly:
as §1

For series [5], the target named is RARb:RXRa (Homo sapiens, UniProt P10826;P19793 full;full). Described as above. The note with it: tags: His kept;His cleaved; copies: 1;1; label: surface-attached array probe. The method in brief:
as §1

Series [6] has as its target RXRa (Homo sapiens, UniProt P19793). Put plainly: no ligand; PBM; 180 nM; PBS pH 7.4, 2% milk, 0.02% Triton X-100, 1 mM DTT, BSA, 0.4 mg/ml salmon testes DNA. Conditions: tags: His cleaved; chain copies: 2; label: surface-attached array probe.
Series [7] deals with PPARa:RXRa (Homo sapiens, UniProt Q07869;P19793 full;full). In words: no ligand; PBM; 270 nM : 90 nM RXRa; PBS pH 7.4, 2% milk, 0.02% Triton X-100, 1 mM DTT, BSA, 0.4 mg/ml salmon testes DNA. Conditions: tags: GST kept;His cleaved; copies: 1;1; label: surface-attached array probe. Put shortly:
as §1

Sequence of VDR:RXRa (P11473 whole entry, chain 1 of 2): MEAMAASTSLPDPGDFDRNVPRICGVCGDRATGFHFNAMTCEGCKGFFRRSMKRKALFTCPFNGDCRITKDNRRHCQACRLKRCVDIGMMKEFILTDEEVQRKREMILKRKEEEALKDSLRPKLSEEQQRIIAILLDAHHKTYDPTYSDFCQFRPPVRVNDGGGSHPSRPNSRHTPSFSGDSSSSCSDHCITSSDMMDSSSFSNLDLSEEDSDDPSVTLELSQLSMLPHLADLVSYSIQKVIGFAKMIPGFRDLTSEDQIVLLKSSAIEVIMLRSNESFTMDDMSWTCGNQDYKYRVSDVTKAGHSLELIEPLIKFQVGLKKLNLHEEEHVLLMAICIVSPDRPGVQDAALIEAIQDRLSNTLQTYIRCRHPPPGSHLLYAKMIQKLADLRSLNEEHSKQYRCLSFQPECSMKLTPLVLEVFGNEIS
Sequence of VDR:RXRa (P19793 whole entry, chain 2 of 2): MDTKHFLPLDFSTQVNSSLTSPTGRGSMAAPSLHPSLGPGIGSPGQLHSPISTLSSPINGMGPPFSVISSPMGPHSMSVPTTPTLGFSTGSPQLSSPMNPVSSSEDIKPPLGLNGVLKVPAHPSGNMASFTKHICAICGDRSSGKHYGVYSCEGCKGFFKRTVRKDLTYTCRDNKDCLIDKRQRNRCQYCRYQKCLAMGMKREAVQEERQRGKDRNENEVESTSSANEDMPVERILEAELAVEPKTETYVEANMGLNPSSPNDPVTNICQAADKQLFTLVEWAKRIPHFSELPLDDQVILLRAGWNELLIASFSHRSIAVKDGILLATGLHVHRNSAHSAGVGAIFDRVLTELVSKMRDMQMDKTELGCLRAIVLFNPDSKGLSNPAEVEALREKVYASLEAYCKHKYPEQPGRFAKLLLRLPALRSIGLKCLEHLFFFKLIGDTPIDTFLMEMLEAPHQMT
Sequence of RARg:RXRa (P13631 whole entry, chain 1 of 2): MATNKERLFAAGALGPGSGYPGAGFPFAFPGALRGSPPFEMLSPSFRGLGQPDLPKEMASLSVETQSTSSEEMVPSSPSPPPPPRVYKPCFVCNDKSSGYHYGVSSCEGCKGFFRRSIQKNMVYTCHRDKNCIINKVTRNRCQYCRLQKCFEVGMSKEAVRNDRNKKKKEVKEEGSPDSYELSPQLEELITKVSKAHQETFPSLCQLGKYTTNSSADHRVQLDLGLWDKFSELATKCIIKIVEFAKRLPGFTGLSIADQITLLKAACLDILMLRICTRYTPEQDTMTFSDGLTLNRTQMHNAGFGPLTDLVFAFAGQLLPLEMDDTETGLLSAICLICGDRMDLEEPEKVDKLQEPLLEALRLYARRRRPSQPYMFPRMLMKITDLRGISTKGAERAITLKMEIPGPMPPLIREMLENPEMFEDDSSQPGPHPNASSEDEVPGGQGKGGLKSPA
Sequence of RARg:RXRa (P19793 whole entry, chain 2 of 2): as the sequence (P19793 whole entry, chain 2 of 2) above
Sequence of PXR:RXRa (O75469 whole entry, chain 1 of 2): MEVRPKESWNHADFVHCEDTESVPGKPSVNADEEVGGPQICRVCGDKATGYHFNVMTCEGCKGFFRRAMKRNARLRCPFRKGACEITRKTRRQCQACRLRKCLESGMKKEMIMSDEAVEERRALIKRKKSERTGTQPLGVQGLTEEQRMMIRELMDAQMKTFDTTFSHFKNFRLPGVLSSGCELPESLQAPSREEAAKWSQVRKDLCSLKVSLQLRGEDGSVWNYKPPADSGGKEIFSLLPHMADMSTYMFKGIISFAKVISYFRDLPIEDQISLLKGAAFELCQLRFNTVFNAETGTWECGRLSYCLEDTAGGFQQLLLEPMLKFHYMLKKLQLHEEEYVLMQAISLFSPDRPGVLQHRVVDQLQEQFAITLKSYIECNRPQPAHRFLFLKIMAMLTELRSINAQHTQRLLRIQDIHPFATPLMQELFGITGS
Sequence of PXR:RXRa (P19793 whole entry, chain 2 of 2): as the sequence (P19793 whole entry, chain 2 of 2) above
Sequence of RXRa (P19793 whole entry): as the sequence (P19793 whole entry, chain 2 of 2) above
Sequence of RARb:RXRa (P10826 whole entry, chain 1 of 2): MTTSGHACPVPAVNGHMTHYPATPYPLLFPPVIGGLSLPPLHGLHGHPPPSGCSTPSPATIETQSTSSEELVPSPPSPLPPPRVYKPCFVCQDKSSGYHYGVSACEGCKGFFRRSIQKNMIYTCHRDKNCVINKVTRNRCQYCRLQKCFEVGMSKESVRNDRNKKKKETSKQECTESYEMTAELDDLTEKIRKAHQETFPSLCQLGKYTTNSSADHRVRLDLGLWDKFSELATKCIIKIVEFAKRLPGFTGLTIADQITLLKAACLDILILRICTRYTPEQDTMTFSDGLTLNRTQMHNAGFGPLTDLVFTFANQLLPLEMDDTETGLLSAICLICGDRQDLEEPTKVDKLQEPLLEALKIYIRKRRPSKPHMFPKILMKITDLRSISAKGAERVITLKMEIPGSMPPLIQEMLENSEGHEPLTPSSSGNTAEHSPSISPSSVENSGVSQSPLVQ
Sequence of RARb:RXRa (P19793 whole entry, chain 2 of 2): as the sequence (P19793 whole entry, chain 2 of 2) above
Sequence of FXR:RXRa (Q96RI1 whole entry, chain 1 of 2): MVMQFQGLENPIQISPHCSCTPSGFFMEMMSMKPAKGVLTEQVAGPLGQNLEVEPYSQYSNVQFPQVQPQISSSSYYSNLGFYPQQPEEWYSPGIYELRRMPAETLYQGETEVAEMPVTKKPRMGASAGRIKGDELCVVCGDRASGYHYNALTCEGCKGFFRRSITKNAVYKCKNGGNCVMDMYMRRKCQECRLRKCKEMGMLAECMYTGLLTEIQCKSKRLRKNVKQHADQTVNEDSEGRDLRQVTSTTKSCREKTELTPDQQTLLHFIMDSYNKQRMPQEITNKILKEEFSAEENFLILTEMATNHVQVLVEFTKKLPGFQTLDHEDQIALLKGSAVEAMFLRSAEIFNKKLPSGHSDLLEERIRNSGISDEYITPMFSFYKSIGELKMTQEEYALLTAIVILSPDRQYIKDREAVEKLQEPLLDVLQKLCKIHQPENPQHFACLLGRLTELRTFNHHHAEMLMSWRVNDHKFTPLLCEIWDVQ
Sequence of FXR:RXRa (P19793 whole entry, chain 2 of 2): as the sequence (P19793 whole entry, chain 2 of 2) above
Sequence of PPARa:RXRa (Q07869 whole entry, chain 1 of 2): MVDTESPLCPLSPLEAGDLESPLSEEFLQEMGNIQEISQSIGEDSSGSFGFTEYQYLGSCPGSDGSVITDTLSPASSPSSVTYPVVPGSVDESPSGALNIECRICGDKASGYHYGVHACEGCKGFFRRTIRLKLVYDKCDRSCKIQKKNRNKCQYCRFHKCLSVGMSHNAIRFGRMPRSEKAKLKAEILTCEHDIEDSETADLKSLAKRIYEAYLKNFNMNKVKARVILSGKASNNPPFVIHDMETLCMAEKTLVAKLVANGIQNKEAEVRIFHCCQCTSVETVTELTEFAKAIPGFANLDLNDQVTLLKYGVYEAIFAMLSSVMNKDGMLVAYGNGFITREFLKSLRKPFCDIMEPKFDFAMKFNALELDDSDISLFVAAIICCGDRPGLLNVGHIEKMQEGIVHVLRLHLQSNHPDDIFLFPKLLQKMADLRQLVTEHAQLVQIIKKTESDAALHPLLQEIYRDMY
Sequence of PPARa:RXRa (P19793 whole entry, chain 2 of 2): as the sequence (P19793 whole entry, chain 2 of 2) above

B1: NRC3_random_hg19_340_o1 (dsDNA)
DNA 1: GCGCCTTGTCCTTCTGCAGCTGCTGGTGCAGCCCAGGCGATTGACAGCGTAGAATGAAGG
DNA 2: CCTTCATTCTACGCTGTCAATCGCCTGGGCTGCACCAGCAGCTGCAGAAGGACAAGGCGC
For B1, the binding signal in series [1] was -0.68 PBM z-score against 500 random probes; in series [2], -0.91 PBM z-score against 500 random probes.

B2: NRC3_random_hg19_134_o1 (dsDNA)
DNA 1: GCAGCTCCACTTCATGCCAGGCCTGGGCTAGAGGCTGCGATTGACAGCGTAGAATGAAGG
DNA 2: CCTTCATTCTACGCTGTCAATCGCAGCCTCTAGCCCAGGCCTGGCATGAAGTGGAGCTGC
With B2, the binding signal was -0.54 PBM z-score against 500 random probes in series [3] and -0.78 PBM z-score against 500 random probes in series [2].

B3: NRC3_random_hg19_401_o1 (dsDNA)
DNA 1: GCTCTCCATCTTGAGTACCAGCCCTGTTCTTCCAGTGCGATTGACAGCGTAGAATGAAGG
DNA 2: CCTTCATTCTACGCTGTCAATCGCACTGGAAGAACAGGGCTGGTACTCAAGATGGAGAGC
For B3, the results for the binding signal in series [1] and in series [2] were -0.32 PBM z-score against 500 random probes and 0.41 PBM z-score against 500 random probes, respectively.

B4: NRC3_wobSeed113_DR4_T13C_o1 (dsDNA)
DNA 1: GCATATGTAGGTCAGCTGGGGTCATTCAGACTAGGCGCGATTGACAGCGTAGAATGAAGG
DNA 2: CCTTCATTCTACGCTGTCAATCGCGCCTAGTCTGAATGACCCCAGCTGACCTACATATGC
On to B4, for which the binding signal is 7.24 PBM z-score against 500 random probes in series [4] and 7.5 PBM z-score against 500 random probes in series [2].

B5: NRC3_wobSeed85_DR3_C13A_o1 (dsDNA)
DNA 1: GCCGTCCAAGGTAAGAGAGGTCAGTGAATGCCGAGTGCGATTGACAGCGTAGAATGAAGG
DNA 2: CCTTCATTCTACGCTGTCAATCGCACTCGGCATTCACTGACCTCTCTTACCTTGGACGGC
With B5, the figures for the binding signal in series [5] and in series [2] were 3.07 PBM z-score against 500 random probes and 3.25 PBM z-score against 500 random probes, respectively.

B6: NRC3_wobSeed85_DR3_G24C_o1 (dsDNA)
DNA 1: GCCGTCCAAGGTCAGAGAGGTCACTGAATGCCGAGTGCGATTGACAGCGTAGAATGAAGG
DNA 2: CCTTCATTCTACGCTGTCAATCGCACTCGGCATTCAGTGACCTCTCTGACCTTGGACGGC
Take B6: the values for the binding signal in series [4] and in series [2] were 7.9 PBM z-score against 500 random probes and 6.76 PBM z-score against 500 random probes, respectively.

B7: NRC3_random_hg19_9_o1 (dsDNA)
DNA 1: GCAGGACTCCTCGTGAAGAGCAGGTGGGAGCGAGTCGCGATTGACAGCGTAGAATGAAGG
DNA 2: CCTTCATTCTACGCTGTCAATCGCGACTCGCTCCCACCTGCTCTTCACGAGGAGTCCTGC
Regarding B7, the binding signal was -0.88 PBM z-score against 500 random probes in series [1] and -0.76 PBM z-score against 500 random probes in series [2].

B8: NRC3_random_hg19_219_o1 (dsDNA)
DNA 1: GCTATAGCTCACAACCTCATACCAGGAAGGGCTCAGGCGATTGACAGCGTAGAATGAAGG
DNA 2: CCTTCATTCTACGCTGTCAATCGCCTGAGCCCTTCCTGGTATGAGGTTGTGAGCTATAGC
For the molecule B8, the binding signal was -0.28 PBM z-score against 500 random probes in series [5] and -0.27 PBM z-score against 500 random probes in series [2].

B9: NRC3_wobSeed137_DR5_C19G_o1 (dsDNA)
DNA 1: GCATATGTAGGTTACATCGGGGTCATTCAGGCTATGGCGATTGACAGCGTAGAATGAAGG
DNA 2: CCTTCATTCTACGCTGTCAATCGCCATAGCCTGAATGACCCCGATGTAACCTACATATGC
For B9, the binding signal in series [4] was 6.54 PBM z-score against 500 random probes; in series [2] it was 6.55 PBM z-score against 500 random probes.

B10: NRC3_wobSeed137_DR5_C18G_o1 (dsDNA)
DNA 1: GCATATGTAGGTTACATGCGGGTCATTCAGGCTATGGCGATTGACAGCGTAGAATGAAGG
DNA 2: CCTTCATTCTACGCTGTCAATCGCCATAGCCTGAATGACCCGCATGTAACCTACATATGC
B10: the binding signal is 3.89 PBM z-score against 500 random probes in series [1] and 3.01 PBM z-score against 500 random probes in series [2].

B11: NRC3_random_hg19_102_o1 (dsDNA)
DNA 1: GCCAGATGAAATGACCAGGCTGTTACCAGGGTCTATGCGATTGACAGCGTAGAATGAAGG
DNA 2: CCTTCATTCTACGCTGTCAATCGCATAGACCCTGGTAACAGCCTGGTCATTTCATCTGGC
For the molecule B11, the binding signal in series [6] was 0.48 PBM z-score against 500 random probes; in series [1] it was 0.17 PBM z-score against 500 random probes; in series [2], -0.16 PBM z-score against 500 random probes.

B12: NRC3_random_hg19_432_o1 (dsDNA)
DNA 1: GCATGTCAATGGTAGTTTGATGGGAATAGTATTGAGGCGATTGACAGCGTAGAATGAAGG
DNA 2: CCTTCATTCTACGCTGTCAATCGCCTCAATACTATTCCCATCAAACTACCATTGACATGC
For the molecule B12, the binding signal was 0.02 PBM z-score against 500 random probes in series [6] and -0.12 PBM z-score against 500 random probes in series [2].

B13: NRC3_random_hg19_237_o1 (dsDNA)
DNA 1: GCTGCAGAGAGGCCACCAGCCAGCCCAGACCCATGCGCGATTGACAGCGTAGAATGAAGG
DNA 2: CCTTCATTCTACGCTGTCAATCGCGCATGGGTCTGGGCTGGCTGGTGGCCTCTCTGCAGC
In the case of B13, the figures for the binding signal in series [6] and in series [2] were 0.12 PBM z-score against 500 random probes and -0.57 PBM z-score against 500 random probes, respectively.

B14: NRC3_wobSeed109_DR4_G21T_o1 (dsDNA)
DNA 1: GCCGTCCAAGGTCATAGGAGTTCAGTGAAGACAGATGCGATTGACAGCGTAGAATGAAGG
DNA 2: CCTTCATTCTACGCTGTCAATCGCATCTGTCTTCACTGAACTCCTATGACCTTGGACGGC
As for B14, the binding signal is 7.28 PBM z-score against 500 random probes in series [4] and 7.41 PBM z-score against 500 random probes in series [2].

B15: NRC3_wobSeed109_DR4_G17C_o1 (dsDNA)
DNA 1: GCCGTCCAAGGTCATACGAGGTCAGTGAAGACAGATGCGATTGACAGCGTAGAATGAAGG
DNA 2: CCTTCATTCTACGCTGTCAATCGCATCTGTCTTCACTGACCTCGTATGACCTTGGACGGC
As to B15, the figures for the binding signal in series [4] and in series [2] were 7.31 PBM z-score against 500 random probes and 7.4 PBM z-score against 500 random probes, respectively.

B16: NRC3_random_hg19_464_o1 (dsDNA)
DNA 1: GCAGAACCTCATTGCTTATCGCACAGATGAGATGCGGCGATTGACAGCGTAGAATGAAGG
DNA 2: CCTTCATTCTACGCTGTCAATCGCCGCATCTCATCTGTGCGATAAGCAATGAGGTTCTGC
As for B16, the results for the binding signal in series [6], in series [7] and in series [2] were 0.3 PBM z-score against 500 random probes, -0.25 PBM z-score against 500 random probes and -0.05 PBM z-score against 500 random probes, respectively.

B17: NRC3_wobSeed37_DR1_A8G_o1 (dsDNA)
DNA 1: GCCGTCCGAGGTCAAAGGTCAGTGAAGAGATGACGGGCGATTGACAGCGTAGAATGAAGG
DNA 2: CCTTCATTCTACGCTGTCAATCGCCCGTCATCTCTTCACTGACCTTTGACCTCGGACGGC
For B17, the binding signal in series [4] is 7.2 PBM z-score against 500 random probes; in series [2] it was 7.4 PBM z-score against 500 random probes.

B18: NRC3_wobSeed95_DR3_G22C_o1 (dsDNA)
DNA 1: GCAGAACGAGGGCAATGAGTTCATAGCACGGGTGGCGCGATTGACAGCGTAGAATGAAGG
DNA 2: CCTTCATTCTACGCTGTCAATCGCGCCACCCGTGCTATGAACTCATTGCCCTCGTTCTGC
In the case of B18, the binding signal is 8.01 PBM z-score against 500 random probes in series [4] and 7.08 PBM z-score against 500 random probes in series [2].

B19: NRC3_wobSeed121_DR5_A19G_o1 (dsDNA)
DNA 1: GCCAAACTAGGTCACCGGGAGGTCAAAGTCCGCATGGCGATTGACAGCGTAGAATGAAGG
DNA 2: CCTTCATTCTACGCTGTCAATCGCCATGCGGACTTTGACCTCCCGGTGACCTAGTTTGGC
For the molecule B19, the binding signal in series [4] was 6.81 PBM z-score against 500 random probes; in series [2] it was 6.61 PBM z-score against 500 random probes.

B20: NRC3_wobSeed84_DR3_T8G_o1 (dsDNA)
DNA 1: GCCCGACGGGGGCAGAAAGGTTACCATACCATCCGGGCGATTGACAGCGTAGAATGAAGG
DNA 2: CCTTCATTCTACGCTGTCAATCGCCCGGATGGTATGGTAACCTTTCTGCCCCCGTCGGGC
Regarding B20, the binding signal is 3.11 PBM z-score against 500 random probes in series [5] and 3.49 PBM z-score against 500 random probes in series [2].

B21: NRC3_wobSeed89_DR3_G19A_o1 (dsDNA)
DNA 1: GCCTATGTAGGTTAAGGGAGTCATTCAGTTTGAAAGGCGATTGACAGCGTAGAATGAAGG
DNA 2: CCTTCATTCTACGCTGTCAATCGCCTTTCAAACTGAATGACTCCCTTAACCTACATAGGC
As to B21, the values for the binding signal in series [3], in series [1] and in series [2] were 0.48 PBM z-score against 500 random probes, 0.49 PBM z-score against 500 random probes and 0.45 PBM z-score against 500 random probes, respectively.

B22: NRC3_wobSeed89_DR3_G16C_o1 (dsDNA)
DNA 1: GCCTATGTAGGTTAACGGGGTCATTCAGTTTGAAAGGCGATTGACAGCGTAGAATGAAGG
DNA 2: CCTTCATTCTACGCTGTCAATCGCCTTTCAAACTGAATGACCCCGTTAACCTACATAGGC
With B22, the binding signal is 8.07 PBM z-score against 500 random probes in series [4] and 6.67 PBM z-score against 500 random probes in series [2].

B23: NRC3_random_hg19_344_o1 (dsDNA)
DNA 1: GCCGGAAGAGAATTCTTGCCTGCCCACTGGTAGAATGCGATTGACAGCGTAGAATGAAGG
DNA 2: CCTTCATTCTACGCTGTCAATCGCATTCTACCAGTGGGCAGGCAAGAATTCTCTTCCGGC
As for B23, the binding signal was -0.83 PBM z-score against 500 random probes in series [6] and -0.71 PBM z-score against 500 random probes in series [2].

Values taken from PMC6555819, “Comprehensive study of nuclear receptor DNA binding provides a revised framework for understanding receptor specificity”.
